Patent US20100015126A1, “Methods of Binding of Cross-Beta Structures By Chaperones” (priority 2006, published 2010)

Target: T1, human mitochondrial HSP60 (Homo sapiens, UniProt P10809)
T1 construct: Dr. W. van Eden, Utrecht University; host or cells: E. coli
Assay: ELISA: binding of HSP60 to immobilized (misfolded) protein ligands
Description: Recombinant human HSP60 with N-terminal His-tag was a kind gift of Dr. R. van der Zee and Prof. Dr. W. van Eden (Institute of Infectious Diseases and Immunology, Faculty of Veterinary Medicine, Utrecht University, Utrecht, The Netherlands), and was supplied in lyophilized form. The HSP60 was produced in E. coli and purified using Nickel-Sepharose. The HSP60 was lyophilized from 20-40 mM ammonium-bicarbonate solution, after purification, and stored at −20° C. The construct lacks the mitochondrial signal sequence. […] Before use, the lyophilized protein is dissolved at room temperature at 1 mg/ml in 20-40 mM NH4HCO3, resulting in a pH of 7.0. Aliquots are stored at −20° C. or −80° C. The mitochondrial HSP60 is a functional dimer of heptamers (MW(HSP60 monomer)=˜58 kDa), and is involved in multimer protein assembling and aids in transport of unfolded proteins across membranes. For the binding studies, at two occasions separate HSP60 solutions were prepared originating from the same batch of purified protein, lyophilized in separate Eppendorf cups.
Binding of chaperones to immobilized (misfolded) protein ligands was determined using an enzyme linked immuno sorbent assay (ELISA) approach. […] After 5 washes with wash buffer followed by two washes with PBS, binding of antibodies was assessed. […] Plates were read at 450 nm. […]

T1 sequence (P10809 27-573): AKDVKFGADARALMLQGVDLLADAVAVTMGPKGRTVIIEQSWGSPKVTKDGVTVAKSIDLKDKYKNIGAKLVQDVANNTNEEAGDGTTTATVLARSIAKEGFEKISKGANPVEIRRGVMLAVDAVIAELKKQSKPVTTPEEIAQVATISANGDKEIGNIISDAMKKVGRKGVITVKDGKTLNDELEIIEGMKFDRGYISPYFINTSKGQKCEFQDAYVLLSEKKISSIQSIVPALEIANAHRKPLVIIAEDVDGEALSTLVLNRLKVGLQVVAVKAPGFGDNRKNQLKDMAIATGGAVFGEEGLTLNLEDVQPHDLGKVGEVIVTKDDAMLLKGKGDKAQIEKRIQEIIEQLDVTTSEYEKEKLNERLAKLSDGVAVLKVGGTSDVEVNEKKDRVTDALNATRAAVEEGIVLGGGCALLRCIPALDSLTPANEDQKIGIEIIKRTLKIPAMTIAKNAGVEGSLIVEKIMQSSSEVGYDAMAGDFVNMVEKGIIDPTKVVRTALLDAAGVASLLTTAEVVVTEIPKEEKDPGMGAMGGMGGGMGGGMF

B1: dOVA standard: heat-denatured chicken ovalbumin (protein)
chain: GSIGAASMEFCFDVFKELKVHHANENIFYCPIAIMSALAMVYLGAKDSTRTQINKVVRFDKLPGFGDSIEAQCGTSVNVHSSLRDILNQITKPNDVYSFSLASRLYAEERYPILPEYLQCVKELYRGGLEPINFQTAADQARELINSWVESQTNGIIRNVLQPSSVDSQTAMVLVNAIVFKGLWEKAFKDEDTQAMPFRVTEQESKPVQMMYQIGLFRVASMASEKMKILELPFASGTMSMLVLLPDEVSGLEQLESIINFEKLTEWTSSNVMEERKIKVYLPRMKMEEKYNLTSVLMAMGITDVFSSSANLSGISSAESLKISQAVHAAHAEINEAGREVVGSAEAGVDAASVSEEFRADHPFLFCIKHIATNAVLFFGRCVSP
With B1 the “Binding of concentration series of HSP60 to coated ligand” value was “has been established”.
